This note sets out measurements from patent US20060084593A1.

For this experiment, the target named is gp120/CD4 complex (human immunodeficiency virus (HIV), hxbc2) (UniProt P04578). Put plainly: SPR (Biacore); 48d immobilized; gp120 50 nM, CD4 250 nM, heparin dp16 at 125 nM (0.6 µg/ml) as inhibitor. In general terms: In SPR one partner is held on a chip, and binding of the other changes the refractive index at the surface.

Turning to “antibody 48d specific for the CD4i epitope”, the % inhibition of the interaction by heparin dp16 (125 nM) was in the range of 90 to 100%.
